From patent US20200181261A1 (Bayer, published 2020)

Tests used:
[1] = target: T1, Macaca fascicularis CEACAM6, extracellular (mature form), obtained by Factor Xa cleavage of TPP-2443 (Macaca fascicularis); test: ELISA, antigen coated
T1 construct: used biotinylated in some assays; also called APP-319; Cynomolgus CEACAM6
T1 chain: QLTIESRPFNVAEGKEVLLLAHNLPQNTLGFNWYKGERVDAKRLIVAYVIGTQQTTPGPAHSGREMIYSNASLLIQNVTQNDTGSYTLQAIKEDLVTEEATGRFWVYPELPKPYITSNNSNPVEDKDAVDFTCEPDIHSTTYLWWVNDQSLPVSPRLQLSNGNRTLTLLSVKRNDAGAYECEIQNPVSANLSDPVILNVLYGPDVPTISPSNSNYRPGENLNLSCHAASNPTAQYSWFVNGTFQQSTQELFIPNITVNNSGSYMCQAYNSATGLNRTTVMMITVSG
Description: (§1) ELISAs were used to characterize the binding of antibodies to various CEACAM paralogs and orthologs. Black 384-well plates were coated with […] of various CEACAM protein preparations at 2 μg/ml in coating buffer (Candor) for 1 h at 37° C. After one wash with PBS/0.05% Tween-20, wells were blocked with 100% Smart Block (Candor) for one hour at 37° C. After three washes with PBS/0.05% Tween-20, dilution series of the antibodies in PBS/0.05% Tween-20/10% Smart Block ranging from 2 μg/ml to 2 ng/ml were added and the plates were incubated for 1 h at room temperature. After three washes with PBS/0.05% Tween-20, an appropriate secondary antibody was added. For detection of proteins with a human Fc such as TPP-1173, an anti-human IgG HRP (Sigma A0170) was used at 1:10.000 dilution. For detection of proteins with a mouse Fc such as TPP-1744 an anti-mouse IgG HRP (ThermoScientific 31432) was used at 1:10.000 dilution. PBS/0.05% Tween-20/10% Smart Block was used as dilution buffer. The plates were incubated for 1 hour at room temperature. After three washes, the plates were developed with Amplex Red (Life Technologies) and fluorescence was read at an emission wavelength of 590 nm. GraphPad Prism 6.0 software was used to calculate EC₅₀ values using four-parameter non-linear curve fit. […]

[2] = target: T2, human CEACAM5, extracellular (mature form), R&D Systems 4128-CM (human, UniProt P06731 35-685); test: ELISA, antigen coated
T2 construct: used biotinylated in some assays; also called TPP-1438; hC5
T2 sequence: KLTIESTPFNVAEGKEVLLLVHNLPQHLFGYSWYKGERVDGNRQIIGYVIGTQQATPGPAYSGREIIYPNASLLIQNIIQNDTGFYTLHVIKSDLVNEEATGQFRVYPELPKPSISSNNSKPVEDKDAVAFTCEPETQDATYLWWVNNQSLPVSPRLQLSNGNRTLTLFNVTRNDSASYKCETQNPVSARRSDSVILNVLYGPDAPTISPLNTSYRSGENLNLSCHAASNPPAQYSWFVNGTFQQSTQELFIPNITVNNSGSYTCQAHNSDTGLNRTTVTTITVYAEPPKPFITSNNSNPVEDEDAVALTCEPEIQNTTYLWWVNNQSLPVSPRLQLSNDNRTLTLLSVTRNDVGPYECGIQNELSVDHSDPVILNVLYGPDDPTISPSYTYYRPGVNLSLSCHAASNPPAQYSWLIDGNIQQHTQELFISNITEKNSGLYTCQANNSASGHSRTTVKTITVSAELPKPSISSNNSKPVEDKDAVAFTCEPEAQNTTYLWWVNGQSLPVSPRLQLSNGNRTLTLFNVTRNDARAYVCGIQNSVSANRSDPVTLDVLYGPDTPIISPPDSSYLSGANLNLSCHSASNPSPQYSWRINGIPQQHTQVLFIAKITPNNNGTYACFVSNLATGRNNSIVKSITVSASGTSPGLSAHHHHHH
Description: as §1

[3] = target: T3, Human CEACAM6-Dom2-MacMul-Xa-Fc-His (human, Domain 2 from Macaca mulatta); test: domain mapping ELISA, antigen coated
T3 construct: domain chimera fused to Xa-Fc-His; also called TPP-1792; DOM2 MM
Description: (§2) For ELISA analysis, the Fc-fused domain chimeras and the single domain 1 were coated on Nunc MaxiSorb plates and blocked with SmartBlock solution. After incubation with an IgG-concentration series (1 nM-1000 nM) for 1 h, plates were washed with PBS/T. Analysis of the bound IgGs to the CEACAM6 domain constructs was achieved over detection via Anti-Human IgG (Fab specific)-Peroxidase antibody (A0293, Sigma). Fluorescence detection was performed with AmplexRed (A12222, Invitrogen) following standard protocols.

[4] = target: T4, Human CEACAM6-Domain 1-His (expressed in E. coli), wild-type (human); test: domain mapping ELISA, antigen coated
T4 construct: entry includes the His tag; also called hDOM1
T4 chain: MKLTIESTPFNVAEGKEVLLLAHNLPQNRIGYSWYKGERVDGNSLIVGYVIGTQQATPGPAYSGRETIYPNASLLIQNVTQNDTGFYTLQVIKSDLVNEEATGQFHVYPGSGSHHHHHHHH
Description: as §2

[5] = target: T5, Macaca mulatta CEACAM6-Xa-Fc-His (Macaca mulatta); test: SPR, antibody captured, antigen as analyte
T5 construct: extracellular (mature form) fused to Factor Xa site, human IgG1 Fc and His tag; the entry is the whole fusion; also called TPP-1306; MM WT
Description: Surface plasmon resonance (SPR) experiments for quantitative binding analyses were performed either using a Biacore T100, Biacore T200 or a Biacore 4000 instrument (GE Healthcare Biacore, Inc.) equipped with Series S Sensor Chips CM5 (GE Healthcare Biacore, Inc.). Binding assays were carried out at 25° C. with assay buffer HBS-EP+(10 mM HEPES pH 7.4, 150 mM NaCl, 3 mM EDTA, 0.05% Surfactant P20). Antibodies were captured with an anti-hIgG capture antibody covalently immobilized to the chip surface via amine coupling chemistry. Reagents for amine coupling (1-ethyl-3-(3-dimethylaminopropyl) carbodiimide hydrochloride (EDC), N-hydroxysuccinimide (NHS), ethanolamine-HCl pH 8.5) were used from the Amine Coupling Kit (GE Healthcare, product code BR-1000-50). Anti-hIgG, anti-mIgG capture antibodies and immobilization buffer (10 mM sodium acetate pH 5.0) were used from the Human Antibody Capture Kit (GE Healthcare, BR-1008-39) and the Mouse Antibody Capture Kit (GE Healthcare, BR-1008-38), respectively. The sensor chip surface was activated with a freshly prepared solution of 0.2 M EDC and 0.05 M NHS passed over the chip surface for 420 s at a flow rate of 10 μl/min, followed by an injection of anti-hIgG or anti-mIgG capture antibody (dissolved to 25 μg/ml in immobilization buffer) for 180 s at a flow rate of […]. Excess of activated groups were blocked with a 1 molar solution of ethanolamine injected at a flow rate of 10 μl/min for 420 s.
CEACAM antigens were used as analyte to determine KD values. Antibodies were captured for 20 s at a flow rate of 10 μl/min prior to each analyte injection.
Obtained sensorgrams were double-referenced, i.e. in-line reference cell correction followed by buffer sample subtraction.

EC50 [1]: 1.35 nM
EC50 [2]: 0.09 nM
binding result [3]: binds
binding result [4]: no binding (tested: 1000 nM IgG)
Kd [5]: 23 nM
B1: Neo201 (human IgG1) (antibody, V domains shown)
VH: QVQLVQSGAEVKKPGASVKVSCKASGYTFTDYAMHWVRQAPGQRLEWMGLISTYSGDTKYNQNFQGRVTMTVDKSASTAYMELSSLRSEDTAVYYCARGDYSGSRYWFAYWGQGTLVTVSS
VL: DIQMTQSPSSLSASVGDRVTITCQASENIYGALNWYQRKPGKSPKLLIYGASNLATGMPSRFSGSGSGTDYTFTISSLQPEDIATYYCQQVLSSPYTFGGGTKLEIKR
notes: based on US20130189268; also called TPP-1173; Neo201-hIgG1
